Measurements: publication PMC12499469

Molecular target: GRB2 (human (cDNA from 293T or brain glioma cells)), P62993
Assay: molecular recruitment colocalization (MRC), live-cell fluorescence imaging; bait fused to scFv and a fluorescent protein, recruited by dCas9-10xGCN4 (SunTag) and sgRNA MUC4-272kb to a repeated genomic locus in SunTag10x-dCas9-HEK293T cells; preys fused to mCherry or mTagBFP2 with NLS; colocalized spots imaged 24 h after transfection, 37 °C
Details: remark: other sources report otherwise

- SNR ratio (GRB2/SOS1 puncta): 1.46
B1: SOS1, Q07889 1-1333 (natural protein)
chain: MQAQQLPYEFFSEENAPKWRGLLVPALKKVQGQVHPTLESNDDALQYVEELILQLLNMLCQAQPRSASDVEERVQKSFPHPIDKWAIADAQSAIEKRKRRNPLSLPVEKIHPLLKEVLGYKIDHQVSVYIVAVLEYISADILKLVGNYVRNIRHYEITKQDIKVAMCADKVLMDMFHQDVEDINILSLTDEEPSTSGEQTYYDLVKAFMAEIRQYIRELNLIIKVFREPFVSNSKLFSANDVENIFSRIVDIHELSVKLLGHIEDTVEMTDEGSPHPLVGSCFEDLAEELAFDPYESYARDILRPGFHDRFLSQLSKPGAALYLQSIGEGFKEAVQYVLPRLLLAPVYHCLHYFELLKQLEEKSEDQEDKECLKQAITALLNVQSGMEKICSKSLAKRRLSESACRFYSQQMKGKQLAIKKMNEIQKNIDGWEGKDIGQCCNEFIMEGTLTRVGAKHERHIFLFDGLMICCKSNHGQPRLPGASNAEYRLKEKFFMRKVQINDKDDTNEYKHAFEIILKDENSVIFSAKSAEEKNNWMAALISLQYRSTLERMLDVTMLQEEKEEQMRLPSADVYRFAEPDSEENIIFEENMQPKAGIPIIKAGTVIKLIERLTYHMYADPNFVRTFLTTYRSFCKPQELLSLIIERFEIPEPEPTEADRIAIENGDQPLSAELKRFRKEYIQPVQLRVLNVCRHWVEHHFYDFERDAYLLQRMEEFIGTVRGKAMKKWVESITKIIQRKKIARDNGPGHNITFQSSPPTVEWHISRPGHIETFDLLTLHPIEIARQLTLLESDLYRAVQPSELVGSVWTKEDKEINSPNLLKMIRHTTNLTLWFEKCIVETENLEERVAVVSRIIEILQVFQELNNFNGVLEVVSAMNSSPVYRLDHTFEQIPSRQKKILEEAHELSEDHYKKYLAKLRSINPPCVPFFGIYLTNILKTEEGNPEVLKRHGKELINFSKRRKVAEITGEIQQYQNQPYCLRVESDIKRFFENLNPMGNSMEKEFTDYLFNKSLEIEPRNPKPLPRFPKKYSYPLKSPGVRPSNPRPGTMRHPTPLQQEPRKISYSRIPESETESTASAPNSPRTPLTPPPASGASSTTDVCSVFDSDHSSPFHSSNDTVFIQVTLPHGPRSASVSSISLTKGTDEVPVPPPVPPRRRPESAPAESSPSKIMSKHLDSPPAIPPRQPTSKAYSPRYSISDRTSISDPPESPPLLPPREPVRTPDVFSSSPLHLQPPPLGKKSDHGNAFFPNSPSPFTPPPPQTPSPHGTRRHLPSPPLTQEVDLHSIAGPPVPPRQSTSQHIPKLPPKTYKREHTHPSMHRDGPPLLENAHSS
